Experimental data: patent US10202443 (UNIVERSIT LAVAL, dated 2019)
Substitutions are numbered along the chain they refer to. Values belong to the binder of their own block, whether it stands above or below them.

Target: T1, TDP-43 1-206 amino acid fragment, containing the RRM1 domain (Homo sapiens (Human), UniProt Q13148 1-206)
T1 construct: Spotted on membranes for the dot blot; also called amino acids 1-206 of TDP-43
Test: dot blot, scFv-conditioned medium, anti-myc HRP
Protocol: Example 6: Anti-TDP-43 Antibodies Having an scFv Format Detect TDP-43 RRM1 Domain Different concentrations of TDP-43 1-206 amino acid fragment, containing the RRM1 domain were loaded onto membranes by dot blot. Membranes were incubated overnight with media from Hek293 cells that had been transfected with pScFv9 expression plasmid containing the nucleic acids encoding E6_VH1Vk9 and E6_VH7Vk9. The myc signal was detected using anti-myc HRP antibody incubation.

T1 sequence (Q13148 1-206): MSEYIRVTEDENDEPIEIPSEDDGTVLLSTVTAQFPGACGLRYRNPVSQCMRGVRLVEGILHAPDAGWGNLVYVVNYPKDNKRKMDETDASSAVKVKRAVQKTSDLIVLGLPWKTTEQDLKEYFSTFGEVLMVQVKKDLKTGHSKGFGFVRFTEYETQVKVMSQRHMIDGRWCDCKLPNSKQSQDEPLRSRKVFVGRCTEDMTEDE

binding result: binds
B1: E6_VH1Vκ9 scFv antibody (scFv)
scFv: LQESGGGLVQPGGSMKLSCVASGFTSSNYWLNWVRQSPERGLEWVAEIRLKSNNYATNYAESVKGRFTISRDDSKSSVYLQVNNLRAEDTGIYYCTRSTARATPYYFDYWGQGTTVTVSSGGGGSGGGGSGGGGSDIELTQSPSSLAVSAGEKVTMSCKSSQSLLNSRARKNFLTWYQQKPGQSPKLLIYWASTRESGVPDRFTGSGSGTDFTLTISSVQAEDLAVYYCKQSYNLYTFGGGTKLEEQKLISEEDLN
notes: The signal is left out here; Used as conditioned medium or inside transfected cells; also called E6_VH1Vk9; VH1Vk9

binding result: binds
B2: E6_VH7Vκ9 scFv antibody (scFv)
scFv: B1 scFv with E3Q
notes: The signal is left out here; It differs from E6_VH1Vκ9 by one residue (Q instead of E); also called E6_VH7Vk9; VH7Vk9
